Measurements taken from patent US20110076272A1, “THERAPEUTIC METHODS AND COMPOSITIONS” (priority 2009, published 2011).

System: MDA-MB-231 cells
Experiment: Disseminated bone metastasis model, MDA-MB-231 cells injected in the left ventricle
Type: in vivo, mouse
Protocol: The therapeutic consequences of inhibiting either LOXL2 or LOX were assessed in a model of disseminated bone metastasis. Specific antibodies targeting LOXL2 or LOX were used to treat mice injected in the left ventricle with ˜1 million labeled MDA-MB-231 cells. The breast tumor cell line MDA-MB-231 has been widely used as a model to study LOX, and expresses all 5 lysyl oxidase-type enzymes (FIG. 11, panel A). The ability of LOXL2 inhibitory antibody AB0023 to reduce tumor burden was compared to LOX-specific antibody M64, which is a monoclonal antibody targeting the same peptide sequence in the LOX enzymatic domain previously described as generating an inhibitory polyclonal antiserum.

B1: AB0023: mouse anti-human LOXL2 monoclonal antibody; heavy chain variable region SEQ ID NO:1, light chain variable region SEQ ID NO:2 (antibody, listed as Mus musculus, V domains shown)
VH: MEWSRVFIFLLSVTAGVHSQVQLQQSGAELVRPGTSVKVSCKASGYAFTYYLIEWVKQRPGQGLEWIGVINPGSGGTNYNEKFKGKATLTADKSSSTAYMQLSSLTSDDSAVYFCARNWMNFDYWGQGTTLTVSS
VL: MRCLAEFLGLLVLWIPGAIGDIVMTQAAPSVSVTPGESVSISCRSSKSLLHSNGNTYLYWFLQRPGQSPQFLIYRMSNLASGVPDRFSGSGSGTAFTLRISRVEAEDVGVYYCMQHLEYPYTFGGGTKLEIK
modifications: Heavy chain; Light chain
Day 28, p=0.0021
  reduction in tumor cell burden in the femurs, by median value: 127 fold
Day 28, p=0.0197
  reduction in tumor cell burden in total ventral bone, by median value: 28 fold
Separate study, 30 mg/kg AB0023 twice weekly in combination with 5 mg/kg Paclitaxel once per week, p=0.025
  survival: significant survival benefit
